Measurements taken from PMC3159472.

Biological target: F-SSB-Ct peptide (SSB-Ct with an N-terminal fluoresceine moiety) (E. coli)
Test: fluorescence polarisation

Kd: 1100 nM
Substance: SSB–ExoI fusion protein
